Publication PMC11957774 (The Journal of Biological Chemistry, 2025)

T1: MLL4 PHD2/3 fingers (aa 227-324), 15N-labeled (human, UniProt O14686 227-324, uniformly 15N-labeled)
T1 sequence (looked up): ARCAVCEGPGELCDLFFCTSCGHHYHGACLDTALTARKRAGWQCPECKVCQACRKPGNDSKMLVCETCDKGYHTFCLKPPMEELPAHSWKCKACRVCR


molecular target: T1, MLL4 PHD2/3 fingers (aa 227-324), …; assay: NMR titration

binding result | Binder
binds | GWTGARTLADIKARALQVRGA (peptide, UniProt Q8IXJ9 607-627, looked up) [ASXL1 peptide (residues 607-627 of ASXL1), wild type]
binds | GWTGTRTLADIKARALQVRGA (peptide, UniProt Q8IXJ9 607-627, looked up) [ASXL1 peptide (residues 607-627 of ASXL1) A611T]
binds | NRTGAITLADIKAKAQLVKAQ (peptide, UniProt Q76L83 650-670, looked up) [ASXL2 peptide (residues 650-670 of ASXL2) R655I]
